Key:
[1] = test system: full-length PNPase; assay: Cryo-EM of full-length PNPase:RNase E 960–1061; assay type: binding, E. coli
[2] = target: T1, PNPase (Escherichia coli, UniProt P05055); assay type: binding, E. coli; conditions: SPR, 25°C, immobilized PNPase C-His; HEPES pH 7.2; 0, 12.5, 25 and 50 nM (point mutants); contact 120 s, dissociation 120 s; duplicates
T1 construct: made in house; host or cells: E. coli Evo21(DE3)
T1 sequence (P05055 whole entry, looked up): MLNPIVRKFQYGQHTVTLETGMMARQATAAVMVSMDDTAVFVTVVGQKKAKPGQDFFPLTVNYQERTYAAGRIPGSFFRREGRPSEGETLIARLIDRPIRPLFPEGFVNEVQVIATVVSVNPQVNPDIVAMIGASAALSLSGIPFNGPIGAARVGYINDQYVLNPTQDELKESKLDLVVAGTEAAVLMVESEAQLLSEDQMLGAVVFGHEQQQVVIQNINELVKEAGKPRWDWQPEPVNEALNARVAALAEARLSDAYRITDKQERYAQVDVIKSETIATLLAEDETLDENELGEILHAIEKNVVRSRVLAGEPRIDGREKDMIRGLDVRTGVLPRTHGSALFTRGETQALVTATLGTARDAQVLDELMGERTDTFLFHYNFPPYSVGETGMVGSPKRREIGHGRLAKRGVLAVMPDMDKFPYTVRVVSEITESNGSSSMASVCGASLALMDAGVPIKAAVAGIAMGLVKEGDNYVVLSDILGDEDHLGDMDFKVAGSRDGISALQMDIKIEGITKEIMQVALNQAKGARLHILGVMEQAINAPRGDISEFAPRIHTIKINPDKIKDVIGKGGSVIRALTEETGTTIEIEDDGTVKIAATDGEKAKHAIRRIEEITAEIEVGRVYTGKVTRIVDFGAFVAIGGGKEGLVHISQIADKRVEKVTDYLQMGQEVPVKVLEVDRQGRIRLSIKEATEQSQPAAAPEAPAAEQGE
Description: Briefly, at the N-terminal of the construct, there is an Hisx6 affinity tag that will be used for affinity purification. Following the Hisx6 tag there is an maltose-binding protein (MBP) tag with a TEV cleavage site to maintain solubility of the peptides. Following the MBP tag the gene encoding the peptide is inserted, and is then followed by intein, a self-cleavable tag, followed by a choline-binding domain, which can be used for an extra step of affinity purification. […] After expression, cells were harvested, resuspended in Lysis Buffer 2 (20 mM Tris–HCl, pH 8.0, 80 mM KCl, 300 mM NaCl, 20 mM Imidazole, 0.5 mM TCEP), and lysed with a cell disruptor (Emulsiflex, Avestin). […] After subsequent rounds of washing with Ni Equilibration Buffer supplemented with, respectively, 0.1% Triton-X, 1 M NaCl, and a final wash in Ni Equilibration Buffer, samples were eluted with Ni Elution Buffer (20 mM Tris–HCl, pH 8.0, 300 mM NaCl, 300 mM imidazole, 0.5 mM TCEP). Enriched fractions were then supplemented with 100 mM β-mercaptoethanol to catalyse intein self-cleavage overnight at room temperature. Treated samples were filtered and loaded on an amylose gravity flow column, equilibrated with Amy Equilibration Buffer (20 mM Tris–HCl, pH 8.0, 20 mM NaCl, 20 mM imidazole, 2 mM β-mercaptoethanol) and after washing, His-tagged TEV protease was applied to the resin and incubated at 4°C for 2 h.
PNPase carrying a C-terminal Hisx6 tag was expressed from pExp-cis-Ec_PNP-CHis vector in E. coli Evo21(DE3) cells, induced with 0.4 mM IPTG, at 18°C overnight. After expression, cells were harvested and resuspended in Lysis Buffer 2 (20 mM Tris–HCl, pH 8.0, 80 mM KCl, 300 mM NaCl, 20 mM imidazole, 0.5 mM TCEP), and lysed with a cell disruptor (Emulsiflex, Avestin). […] After subsequent rounds of washing with equilibration buffer supplemented with 0.1% Triton-X, or 1 M NaCl, the sample was eluted with Ni PNPCHis Elution Buffer (20 mM NaH2PO4, pH 8.0, 300 mM NaCl, 300 mM KCl, 5 mM MgCl2, 300 mM imidazole, pH 7.5, 10 mM β-mercaptoethanol). […] Fractions containing PNPase were run through a HiPrep™ 26/10 Desalting Column (GE Healthcare) and buffer exchanged to Q PNPCHis A (20 mM NaH2PO4, pH 8.0, 30 mM NaCl, 10% glycerol, 0.5 mM TCEP).
Interaction measurements were made using a Biacore T200 instrument (GE) at 25°C. PNPase with a 6xHisTag at the CTD was immobilized on a Series S Sensor Chip NTA (Cytiva) to provide a signal of 5 response units (RU). […] For the SPR analysis of the point mutants, binding to PNPase was measured at four different concentrations (0, 12.5, 25, and 50 nM). All concentrations were run in duplicates. The contact time was 60 s, while the dissociation time was 120 s, at a […] flow rate. […] The chip surface was regenerated with 350 mM EDTA in water, following manufacturer's instructions. Data were processed using the manufacturer’s BIAevaluation software.

B1: RNase E 960 – 1061 wildtype: wildtype RNase E peptide 960–1061 (peptide)
chain: VVETAEVVVAEPEVVAQPAAPVVAEVAAEVETVAAVEPEVTVEHNHATAPMTRAPAPEYVPEAPRHSDWQRPTFAFEGKGAAGGHTATHHASAAPARPQPVE
modifications: left off: His6, N-terminal, cleaved | MBP, N-terminal, cleaved | intein, C-terminal, cleaved | choline-binding domain, C-terminal, cleaved
- location of extra density / binding on PNPase ([1]; cryo-EM, PNPase:RNase E 960–1061): bridging two b-strands
- interaction with KH and S1 domains of PNPase ([1]; preliminary cryo-EM map, full-length PNPase): does not interact with the KH and S1 domains of PNPase
- Kd (dissociation rate constant, point mutants and wildtype) [2]: 0.026 s⁻¹

Reference: PMC12489471, “A multi-dentate, cooperative interaction between endo- and exo-ribonucleases within the bacterial RNA degradosome” (Nucleic Acids Research, 2025)
